Test results: patent US20180057604A1 (Genentech, published 2018)
Changes are numbered by the printed parent chain. Names and notes keep the numbering of the source. Read-outs that look alike come from different tables or passages of the source. Values belong to the binder of their own block, whether it stands above or below them.

How the values were obtained:
[1] = target: T1, cyno TfR extracellular domain (analogous construct to human TfR ecd) (cynomolgus monkey, UniProt Q5RDH6 87-760 (Pongo abelii entry)); assay: SPR, KD on cyno TfR over KD on human TfR
T1 construct: also called cynoTfR ecd
T1 chain: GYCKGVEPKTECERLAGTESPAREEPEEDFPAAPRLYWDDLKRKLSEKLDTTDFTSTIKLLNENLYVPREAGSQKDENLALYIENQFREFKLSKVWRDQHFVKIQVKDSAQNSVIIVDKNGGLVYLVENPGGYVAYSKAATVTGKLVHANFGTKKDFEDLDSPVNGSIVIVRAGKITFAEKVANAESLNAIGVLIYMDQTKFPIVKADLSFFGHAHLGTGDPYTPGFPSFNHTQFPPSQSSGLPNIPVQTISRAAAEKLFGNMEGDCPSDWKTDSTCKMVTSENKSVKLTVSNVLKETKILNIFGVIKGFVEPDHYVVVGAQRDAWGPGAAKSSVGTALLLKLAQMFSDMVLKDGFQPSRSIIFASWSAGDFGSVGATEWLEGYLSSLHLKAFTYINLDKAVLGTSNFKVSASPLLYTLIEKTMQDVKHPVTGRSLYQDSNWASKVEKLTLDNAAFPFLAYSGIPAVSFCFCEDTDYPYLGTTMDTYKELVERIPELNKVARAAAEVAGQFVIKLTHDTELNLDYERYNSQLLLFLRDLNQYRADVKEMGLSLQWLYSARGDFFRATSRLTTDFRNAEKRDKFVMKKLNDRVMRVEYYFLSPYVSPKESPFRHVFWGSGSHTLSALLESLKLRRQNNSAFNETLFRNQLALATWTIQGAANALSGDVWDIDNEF

[2] = target: T2, human TfR extracellular domain with N-terminal His tag (human, UniProt P02786 89-760); assay: SPR, TfR captured by anti-His, Fab injected;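 for KD: single cycle kinetics with a Fab dilution series, fitted by a one-to-one Langmuir model or a steady state model, KD taken as koff over kon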
T2 construct: Biotinylated in some assays; also called huTfR; HuTfR

[3] = target: T1, cyno TfR extracellular domain …; assay: SPR, TfR captured by anti-His, Fab injected;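 for KD: single cycle kinetics with a Fab dilution series, fitted by a one-to-one Langmuir model or a steady state model, KD taken as koff over kon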
[4] = target: T2, human TfR extracellular domain with …; assay: ELISA, IgG
[5] = target: T1, cyno TfR extracellular domain …; assay: ELISA, IgG
[6] = target: T2, human TfR extracellular domain with …; assay: SPR SCK 1:1 fit, IgG
[7] = target: T1, cyno TfR extracellular domain …; assay: SPR SCK 1:1 fit, IgG
[8] = target: T2, human TfR extracellular domain with …; assay: SPR steady state, IgG
[9] = target: T1, cyno TfR extracellular domain …; assay: SPR steady state, IgG
[10] = target: T2, human TfR extracellular domain with …; assay: SPR, Fab
[11] = target: T1, cyno TfR extracellular domain …; assay: SPR, Fab
[12] = target: T1, cyno TfR extracellular domain …; assay: SPR, KD on cyno TfR over KD on human TfR
[13] = target: T2, human TfR extracellular domain with …; assay: SPR, TfR captured by anti-His, Fab injected; remark: listed apart in the source;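 for KD: single cycle kinetics with a Fab dilution series, fitted by a one-to-one Langmuir model or a steady state model, KD taken as koff over kon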
[14] = target: T1, cyno TfR extracellular domain …; assay: SPR, TfR captured by anti-His, Fab injected;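 for KD: single cycle kinetics with a Fab dilution series, fitted by a one-to-one Langmuir model or a steady state model, KD taken as koff over kon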
human BACE1 ECD [15] = target: T3, human BACE1 ECD; assay: Octet, pH 5.0;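 note: antibodies captured on anti-human capture sensor tips, dissociation monitored in PBS with BSA buffer, kinetics fitted with a one-to-one binding model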
T3 construct: analyte of the Octet assay (200 nM) and enzyme of the first short substrate assay; also called human BACE1 extracellular domain

murine BACE1 ECD [16] = target: T4, murine BACE1 ECD; assay: Octet, pH 5.0;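 note: antibodies captured on anti-human capture sensor tips, dissociation monitored in PBS with BSA buffer, kinetics fitted with a one-to-one binding model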
T4 construct: analyte of the Octet assay (200 nM) and enzyme of the first short substrate assay

human BACE1 ECD [17] = target: T3, human BACE1 ECD; assay: Octet, pH 7.5;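 note: antibodies captured on anti-human capture biosensor tips, dissociation followed in PBS with BSA buffer, kinetics fitted with a one-to-one binding model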
murine BACE1 ECD [18] = target: T4, murine BACE1 ECD; assay: Octet, pH 7.5;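 note: antibodies captured on anti-human capture biosensor tips, dissociation followed in PBS with BSA buffer, kinetics fitted with a one-to-one binding model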
[19] = target: T5, human BACE1 (R&D Systems) (human, UniProt P56817); assay: SPR (Biacore)
T5 construct: recombinant, commercial (R&D Systems)

human BACE1 ECD [20] = target: T3, human BACE1 ECD; assay: cell-based or functional assay
murine BACE1 ECD [21] = target: T4, murine BACE1 ECD; assay: cell-based or functional assay
[22] = target: BACE1 (HTRF long substrate and FRET short substrate assays of Example 9D); assay: cell-based or functional assay
[23] = target: T6, BACE1 in primary mouse cortical neurons (mouse, UniProt P56818 46-501); assay: cell-based or functional assay
human BACE1 ECD [24] = target: T3, human BACE1 ECD; assay: Octet, pH 5.0, second run
murine BACE1 ECD [25] = target: T4, murine BACE1 ECD; assay: Octet, pH 5.0, second run
human BACE1 ECD [26] = target: T3, human BACE1 ECD; assay: Octet, pH 7.5, second run
murine BACE1 ECD [27] = target: T4, murine BACE1 ECD; assay: Octet, pH 7.5, second run
[28] = target: T6, BACE1 in primary mouse cortical neurons; assay: cell-based or functional assay; remark: listed apart in the source

T6 sequence (P56818 46-501): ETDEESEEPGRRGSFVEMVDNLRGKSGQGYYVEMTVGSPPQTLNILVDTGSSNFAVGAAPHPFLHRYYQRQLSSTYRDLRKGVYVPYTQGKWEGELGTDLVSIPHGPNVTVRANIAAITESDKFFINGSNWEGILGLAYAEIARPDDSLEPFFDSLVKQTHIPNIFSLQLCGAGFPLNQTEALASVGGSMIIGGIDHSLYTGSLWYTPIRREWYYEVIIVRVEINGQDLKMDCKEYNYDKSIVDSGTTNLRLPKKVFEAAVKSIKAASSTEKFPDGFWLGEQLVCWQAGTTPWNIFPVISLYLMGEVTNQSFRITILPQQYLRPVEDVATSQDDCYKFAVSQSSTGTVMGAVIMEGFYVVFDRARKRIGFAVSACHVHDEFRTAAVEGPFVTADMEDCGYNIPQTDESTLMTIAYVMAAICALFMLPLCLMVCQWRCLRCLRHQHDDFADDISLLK
T3 sequence (single chain, as listed by the source limits assumed): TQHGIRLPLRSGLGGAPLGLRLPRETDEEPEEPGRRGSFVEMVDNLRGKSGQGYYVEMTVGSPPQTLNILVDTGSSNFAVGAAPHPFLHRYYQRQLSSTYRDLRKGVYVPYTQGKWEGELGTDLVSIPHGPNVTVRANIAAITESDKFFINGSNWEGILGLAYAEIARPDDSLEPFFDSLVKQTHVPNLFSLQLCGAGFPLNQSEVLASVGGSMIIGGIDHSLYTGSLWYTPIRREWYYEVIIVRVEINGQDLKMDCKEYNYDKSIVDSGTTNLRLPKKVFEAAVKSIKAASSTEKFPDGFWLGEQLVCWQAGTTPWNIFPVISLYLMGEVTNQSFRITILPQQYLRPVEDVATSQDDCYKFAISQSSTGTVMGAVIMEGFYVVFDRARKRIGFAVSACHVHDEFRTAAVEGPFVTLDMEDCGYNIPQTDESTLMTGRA
T4 sequence (single chain, as listed by the source limits assumed): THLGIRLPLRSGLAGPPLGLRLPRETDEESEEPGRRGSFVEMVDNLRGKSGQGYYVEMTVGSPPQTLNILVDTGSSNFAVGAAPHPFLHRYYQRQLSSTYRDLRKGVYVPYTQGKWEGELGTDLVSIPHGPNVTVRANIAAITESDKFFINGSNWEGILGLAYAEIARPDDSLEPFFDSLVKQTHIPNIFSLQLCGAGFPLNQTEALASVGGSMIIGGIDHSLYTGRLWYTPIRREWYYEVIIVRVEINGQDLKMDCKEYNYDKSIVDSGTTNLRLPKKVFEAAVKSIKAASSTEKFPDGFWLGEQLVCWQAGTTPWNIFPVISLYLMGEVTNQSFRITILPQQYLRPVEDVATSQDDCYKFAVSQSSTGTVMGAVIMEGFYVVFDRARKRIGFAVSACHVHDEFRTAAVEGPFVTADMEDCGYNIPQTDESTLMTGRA
T2 sequence (P02786 89-760 G142S): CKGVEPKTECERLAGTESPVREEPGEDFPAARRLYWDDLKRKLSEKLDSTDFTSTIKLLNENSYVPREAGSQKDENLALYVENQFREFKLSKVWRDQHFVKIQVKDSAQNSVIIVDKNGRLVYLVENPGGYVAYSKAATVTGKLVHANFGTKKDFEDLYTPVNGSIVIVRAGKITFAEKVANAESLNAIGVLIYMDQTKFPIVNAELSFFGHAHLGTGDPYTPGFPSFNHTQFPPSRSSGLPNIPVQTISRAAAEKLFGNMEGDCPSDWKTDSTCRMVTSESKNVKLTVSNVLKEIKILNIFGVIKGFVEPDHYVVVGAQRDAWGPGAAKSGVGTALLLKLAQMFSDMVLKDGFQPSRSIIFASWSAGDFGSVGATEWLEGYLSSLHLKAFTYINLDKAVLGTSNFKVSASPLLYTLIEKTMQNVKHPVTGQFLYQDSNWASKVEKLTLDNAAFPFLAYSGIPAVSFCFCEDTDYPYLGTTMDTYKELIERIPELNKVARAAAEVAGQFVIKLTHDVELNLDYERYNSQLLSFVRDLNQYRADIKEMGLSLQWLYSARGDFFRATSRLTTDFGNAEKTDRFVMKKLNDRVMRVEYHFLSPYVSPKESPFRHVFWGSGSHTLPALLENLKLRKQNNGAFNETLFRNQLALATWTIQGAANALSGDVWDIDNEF
T5 sequence (P56817 22-457 limits assumed): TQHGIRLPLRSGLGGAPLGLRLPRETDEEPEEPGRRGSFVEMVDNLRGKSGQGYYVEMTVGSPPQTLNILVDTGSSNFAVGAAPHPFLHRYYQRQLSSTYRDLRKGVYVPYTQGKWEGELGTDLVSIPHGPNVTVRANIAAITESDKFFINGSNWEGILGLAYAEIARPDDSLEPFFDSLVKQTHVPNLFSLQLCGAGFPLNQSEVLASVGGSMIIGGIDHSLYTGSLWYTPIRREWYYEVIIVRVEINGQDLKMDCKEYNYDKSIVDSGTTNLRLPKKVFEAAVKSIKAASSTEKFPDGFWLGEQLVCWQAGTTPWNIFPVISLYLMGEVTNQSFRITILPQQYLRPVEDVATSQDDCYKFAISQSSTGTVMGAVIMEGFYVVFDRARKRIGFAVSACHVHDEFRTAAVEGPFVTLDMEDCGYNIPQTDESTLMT

- Cy/hu ratio [1]: 19.1
- koff [2]: 0.000169 s⁻¹
- kon [2]: 131000 M⁻¹ s⁻¹
- koff [3]: 0.00244 s⁻¹
- kon [3]: 98900 M⁻¹ s⁻¹
B1: Hu16F6.v4.Fab (Fab, V domains shown)
VH: EVQLVESGPGLVKPSETLSLTCTVSGNSITSEYAWNWIRQPPGKGLEWIGYISYSGTTSYNPSLKSRVTISRDTSKNQLSLKLSSVTAADTAVYYCARYGYGNPATRYFDVWGQGTLVTVSS
VL: DIQMTQSPSSLSASVGDRVTITCRASKSISKYLAWYQQKPGKTNKLLLYSGSTLQSGVPSRFSGSGSGTDYTLTISSLQPEDFATYYCQQHNEYPWTFGQGTKVEIK
notes: Fab

- Cy/hu ratio [1]: 3.9
- Kd [2]: 0.19 nM
- koff [2]: 0.000313 s⁻¹
- kon [2]: 1.65e+06 M⁻¹ s⁻¹
- Kd [3]: 0.741 nM
- koff [3]: 0.000845 s⁻¹
- kon [3]: 1.14e+06 M⁻¹ s⁻¹
B2: Mu7A4.Fab (Fab, V domains shown)
VH: QVQLQQSGPELVRPGVSVKISCKGSGYTFTDYAMHWVKQSHAKSLEWIGGISTYFGRTNYNQKFKGRATMTVDKSSSTAYMELARLTSEDSALYYCARGLSGNYVMDYWGQGTSVTVSS
VL: DIVLTQSPASLAVSLGQRATISCRASESVDDYGNSFMHWYQQKPGQPPKLLIYRASNLESGIPARFSGSGSRTDFTLTINPVEADDVATYYCQQSNEAPPTFGGGTKLEIR
notes: Fab; also called mouse 7A4 Fab

- Cy/hu ratio [1]: 8.56
- koff [2]: 0.00019 s⁻¹
- kon [2]: 60700 M⁻¹ s⁻¹
- koff [3]: 0.00137 s⁻¹
- kon [3]: 51100 M⁻¹ s⁻¹
B3: Mu16F6.Fab (Fab, V domains shown)
VH: DVQLQESGPGLVKPSQSLSLTCTVTGNSITSEYAWNWIRQFPGNKLEWMGYISYSGTTSYNPSLKSRISITRDTSKNQLFLQLNSVTTEDTATYFCARYGYGNPATRYFDVWGAGTTVTVSS
VL: DVQITQSPSYLTASPGETITINCRASKSISKYLAWYQEKPGKTNKLLIYSGSTLQSGIPSRFSGSGSGTDFTLTISNLEPEDFAMYYCQQHNEYPWTFGGGTKLEIK
notes: Fab; also called mouse 16F6 Fab

- EC50 [4]: 0.0145 µg/mL
- EC50 [5]: 0.0508 µg/mL
- Kd [6]: 40 nM
- Kd [7]: 61 nM
- Kd [8]: 150 nM
- Kd [9]: 412 nM
B4: G93A (antibody, V domains shown)
VH: EVQLVQSGAEVKKPGASVKVSCKASGYTFTSYWMHWVRQAPGQRLEWIGEINPTNGRTNYIEKFKSRATLTVDKSASTAYMELSSLRSEDTAVYYCARGTRAYHYWGQGTMVTVSS
VL: DIQMTQSPSSLSASVGDRVTITCRASDNLYSNLAWYQQKPGKSPKLLVYDATNLADGVPSRFSGSGSGTDYTLTISSLQPEDFATYYCQHFWATPLTFGQGTKVEIK
notes: also called 15G11.v5 G93A (CDR-L3) IgG

- Kd [10]: 170 nM
- Kd [11]: 886 nM
B5: P95A (Fab, V domains shown)
VH: B4 VH
VL: B4 VL with A93G, P95A
notes: also called 15G11.v5 P95A (CDR-L3) Fab

- Cy/hu ratio [12]: 4.4
- koff [13]: 0.0104 s⁻¹
- kon [13]: 433000 M⁻¹ s⁻¹
- koff [14]: 0.0329 s⁻¹
- kon [14]: 313000 M⁻¹ s⁻¹
B6: Hu15G11.HC51A Fab (Fab, V domains shown)
VH: B4 VH with I51A
VL: B4 VL with A93G
notes: Fab

- Cy/hu ratio [12]: 4
- koff [13]: 0.0115 s⁻¹
- kon [13]: 890000 M⁻¹ s⁻¹
- koff [14]: 0.025 s⁻¹
- kon [14]: 484000 M⁻¹ s⁻¹
B7: Hu15G11.HC53A Fab (Fab, V domains shown)
VH: B4 VH with T54A
VL: B4 VL with A93G
notes: Fab; also called 15G11.53A Fab

- Cy/hu ratio [12]: 4.6
- koff [13]: 0.00403 s⁻¹
- kon [13]: 564000 M⁻¹ s⁻¹
- koff [14]: 0.0099 s⁻¹
- kon [14]: 304000 M⁻¹ s⁻¹
B8: Hu15G11.HC34A Fab (Fab, V domains shown)
VH: B4 VH with M34A
VL: B4 VL with A93G
notes: Fab

- Kd [10]: 280 nM
B9: W92A (Fab, V domains shown)
VH: B4 VH
VL: B4 VL with W92A, A93G
notes: also called 15G11.v5 W92A (CDR-L3) Fab

- Kd [10]: 245 nM
- Kd [11]: 1300 nM
B10: G93A (Fab, V domains shown)
VH: B4 VH
VL: B4 VL
notes: also called 15G11.v5 G93A (CDR-L3) Fab

- Kd (human BACE1 ECD [15]): 0.3 nM
- Kd (murine BACE1 ECD [16]): 0.65 nM
- Kd (human BACE1 ECD [17]): 0.27 nM
- Kd (murine BACE1 ECD [18]): 0.86 nM
- Kd [19]: 2.95 nM
- % inhibition of BACE1 activity, short FRET substrate (human BACE1 ECD [20]): 69%
- % inhibition of BACE1 activity, short FRET substrate (murine BACE1 ECD [21]): 69%
- EC50, FRET short substrate [22]: 8.58 nM
- EC50, HTRF long substrate [22]: 1.79 nM
- IC50, Abeta x-40 in mouse cortical neurons [23]: 6.48 nM
- IC50, Abeta x-40 in mouse cortical neurons (5894*, second run) [23]: 5.43 nM
- maximal % inhibition of Abeta x-40 [23]: 78%
- Kd (human BACE1 ECD [24]): < 0.27 nM
- Kd (murine BACE1 ECD [25]): < 0.38 nM
- Kd (human BACE1 ECD [26]): < 0.38 nM
- Kd (murine BACE1 ECD [27]): < 0.4 nM
B11: 5894 (antibody, V domains shown)
VH: QVQLVQSGAEVKKPGSSVKVSCKASGGTFSGYAISWVRQAPGQGLEWMGNIIPGFGTANYAQKFQGRVTITADESTSTAYMELSSLRSEDTAVYYCARSGGTKYGMLDVWGQGTMVTVSS
VL: EIVMTQSPATLSVSPGERATLSCRASQSVGSNLAWYQQKPGQAPRLLIYGASTRATGIPARFSGSGSGTEFTLTISSLQSEDFAVYYCQQLYTWPPRTFGGGTKVEIK
notes: anti-BACE1 IgG

- Kd (human BACE1 ECD [15]): 1.1 nM
- Kd (murine BACE1 ECD [16]): 1.1 nM
- Kd (human BACE1 ECD [17]): 1.3 nM
- Kd (murine BACE1 ECD [18]): 1.4 nM
- Kd [19]: 3.53 nM
- % inhibition of BACE1 activity, short FRET substrate (human BACE1 ECD [20]): 65%
- % inhibition of BACE1 activity, short FRET substrate (murine BACE1 ECD [21]): 72%
- EC50, FRET short substrate [22]: 1.33 nM
- EC50, HTRF long substrate [22]: 3.91 nM
- IC50, Abeta x-40 in mouse cortical neurons [28]: 0.33 nM
- IC50, Abeta x-40 in mouse cortical neurons (5905*, second run) [28]: 0.83 nM
- maximal % inhibition of Abeta x-40 [28]: 65%
- Kd (human BACE1 ECD [24]): 0.27 nM
- Kd (murine BACE1 ECD [25]): 0.38 nM
- Kd (human BACE1 ECD [26]): 0.51 nM
- Kd (murine BACE1 ECD [27]): 0.4 nM
B12: 5905 (antibody, V domains shown)
VH: QLQLQESGPGLVKPSETLSLTCTVSGGSISWSSYYWSWIRQPPGKGLEWIGSIYRSGRTYYNPSLKSRVTISVDTSKNQFSLKLSSVTAADTAVYYCARVGHGISYFDLWGRGTLVTVSS
VL: B11 VL with M4L, V13L, G30S, N32Y, G50D, T53K, E70D, Q79E, S80P, L91V
notes: anti-BACE1 IgG
